Assay results published in patent US20260241049A1, “Radiopharmaceutical Compositions Targeting Glypican-3 and Uses Thereof” (RayzeBio, Inc., priority 2023, published 2026).
Starred links: 1 amine or outer side, 2 acyl side, 3 side chain; linkers in the order of their positions; H or OH if unused. Positions of bridges follow the written chain, without caps; N, C: chain ends. Non-standard residues stand in square brackets, D forms with d. Groups on a side chain read outwards from the residue. Primed or numbered codes have the meaning given here. *: point of attachment. MeKCOpipzaa″ = (2S)-6-{[4-(carboxymethyl)piperazine-1-carbonyl]amino}-2-(methylamino)hexanoic acid, CN([C@@H](CCCCNC(=O)N1CCN(CC(=O)[*:3])CC1)C(=O)[*:2])[*:1]; MeDapCOpipzaa = 3-(4-(carboxymethyl)piperazine-1-carboxamido)-2-(methylamino)propanoic acid, CN([C@@H](CNC(=O)N1CCN(CC(=O)[*:3])CC1)C(=O)[*:2])[*:1]; MeKCOpipzaa = N-alpha-methyl-N6-[4-(carboxymethyl)piperazine-1-carbonyl]-L-lysine, CN([C@@H](CCCCNC(=O)N1CCN(CC(=O)[*:3])CC1)C(=O)[*:2])[*:1]; MeA4paa = 3-(1-(carboxymethyl)piperidin-4-yl)-2-(methylamino)propanoic acid, CN([C@@H](CC1CCN(CC(=O)[*:3])CC1)C(=O)[*:2])[*:1]; 3Py6NHaa = 2-amino-3-(6-((carboxymethyl)amino)pyridin-3-yl)propanoic acid, O=C([C@H](Cc1ccc(NCC(=O)[*:3])nc1)N[*:1])[*:2]; MeHseMe(3) = N-methyl-O-methyl-homoserine, 4-methoxy-2-(methylamino)butanoic acid, COCC[C@@H](C(=O)[*:2])N(C)[*:1]; TMe(3) = O-methyl-L-threonine ((2S,3R)-2-amino-3-methoxybutanoic acid), CO[C@H](C)[C@H](N[*:1])C(=O)[*:2]; F4aao = 4-(carboxymethoxy)-L-phenylalanine, O=C([C@H](Cc1ccc(OCC(=O)[*:3])cc1)N[*:1])[*:2]; MeHseMe = N-methyl-O-methyl-L-homoserine, COCC[C@@H](C(=O)[*:2])N(C)[*:1]; Thr(Me)(3) = TMe, O-methyl-L-threonine, CO[C@H](C)[C@H](N[*:1])C(=O)[*:2]; Thr(Me)″ = TMe = O-methyl-L-threonine, CO[C@H](C)[C@H](N[*:1])C(=O)[*:2]; Phe(4-(1-Me-pyrazol-4-yl)) = Cn1cc(-c2ccc(C[C@H](N)C(=O)O)cc2)cn1; SulfoCy5 = sulfo-Cyanine5 hexanoyl dye on the side-chain amine; TMe = O-methyl-L-threonine, CO[C@H](C)[C@H](N[*:1])C(=O)[*:2]; NMeAla(isoquinolin-7-yl) = CN[C@@H](Cc1ccc2ccncc2c1)C(=O)O; SulfoCy5(3) = sulfo-Cyanine5 hexanoyl dye on the lysine NZ; PEG12 = NCCOCCOCCOCCOCCOCCOCCOCCOCCOCCOCCOCCOCCC(=O)O; Phe(4-CH2COOH) = N[C@@H](Cc1ccc(CC(=O)O)cc1)C(=O)O; 3Pal(6-Ph) = N[C@@H](Cc1ccc(-c2ccccc2)nc1)C(=O)O; Biotin = O=C1N[C@H]2[C@H](CS[C@H]2CCCCC(=O)*)N1; Phe(4-COOH) = N[C@@H](Cc1ccc(C(=O)O)cc1)C(=O)O; S3REt = (3R)-2-amino-3-hydroxypentanoic acid; NMe2Nal = CN[C@@H](Cc1ccc2ccccc2c1)C(=O)O; d(tBuAla) = CC(C)(C)C[C@@H](N)C(=O)O; NMeI = CC[C@H](C)[C@H](NC)C(=O)O; NMeQ = CN[C@@H](CCC(N)=O)C(=O)O; NMeK = CN[C@@H](CCCCN)C(=O)O; NMeC = CN[C@@H](CS)C(=O)O; MeK = methyl-L-lysine

B1: Macrocyclic peptide of Example B8 (SEQ ID No. 42) (peptide)
peptide: {CH2CO}-[NMeK](d(tBuAla))[NMeI]D[NMeQ][Phe(4-COOH)]II[F4aao][NMeAla(isoquinolin-7-yl)]G[3Pal(6-Ph)][NMeC]-NH2
modifications: thioether N-12
SMILES: CC[C@H](C)[C@@H]1NC(=O)[C@H](Cc2ccc(C(=O)O)cc2)NC(=O)[C@H](CCC(N)=O)N(C)C(=O)[C@H](CC(=O)O)NC(=O)[C@H]([C@@H](C)CC)N(C)C(=O)[C@H](CCCCNC(=O)[C@H](N)CC(C)(C)C)N(C)C(=O)CSC[C@@H](C(N)=O)N(C)C(=O)[C@H](Cc2ccc(-c3ccccc3)nc2)NC(=O)CNC(=O)[C@H](Cc2ccc3ccncc3c2)N(C)C(=O)[C@H](Cc2ccc(OCC(=O)O)cc2)NC(=O)[C@H]([C@@H](C)CC)NC1=O
B2: PLB-35 (peptide)
peptide: KQDQFTIFFGXC
modifications: biotin-PEG12c conjugate of the peptide of SEQ ID No. 35 (MeK-MeQ-D-MeQ-F4COO-TMe-I-F4aao-MeNal27N-G-3Py6Ph-MeC-NH2); site of attachment shown only in a drawing; thioether ring from N-terminal acetyl to MeC12
B3: Macrocyclic peptide of Example 2-26 (SEQ ID No. 30) (peptide)
peptide: {CH2CO}-[NMeK][NMeI]D[NMeQ][Phe(4-COOH)][Thr(Me)(3)]I[F4aao][NMeAla(isoquinolin-7-yl)]G[3Pal(6-Ph)][NMeC]-NH2
modifications: thioether N-12
SMILES: CC[C@H](C)[C@@H]1NC(=O)[C@H]([C@@H](C)OC)NC(=O)[C@H](Cc2ccc(C(=O)O)cc2)NC(=O)[C@H](CCC(N)=O)N(C)C(=O)[C@H](CC(=O)O)NC(=O)[C@H]([C@@H](C)CC)N(C)C(=O)[C@H](CCCCN)N(C)C(=O)CSC[C@@H](C(N)=O)N(C)C(=O)[C@H](Cc2ccc(-c3ccccc3)nc2)NC(=O)CNC(=O)[C@H](Cc2ccc3ccncc3c2)N(C)C(=O)[C@H](Cc2ccc(OCC(=O)O)cc2)NC1=O

target: T1, Human Glypican3-Fc (ACRO Biosystems, GP3-H5258) (human, UniProt P51654 25-559); test: SPR (Biacore T200), Method B-3: Glypican3-Fc captured on Protein A chip, peptide as analyte
T1 construct: Bought fusion protein, captured in Methods B-2, B-3 and B-4; Catalogue number is printed only in Method B-2; not shown: Fc part of the bought fusion
Method: A Protein A sensor chip (Cytiva) was inserted into a Biacore T200 (Cytiva), priming was performed three times with a running buffer: HBS-P+, pH 7.4 (Cytiva), and equilibration was carried out at a flow rate of 30 μL/min. Glypican3-Fc was allowed to react for 60 seconds at a flow rate of 10 μL/min. After capturing human Glypican3-Fe, a peptide solution prepared to 10 mM in DMSO solution was diluted with a running buffer to a final concentration of 10 μM. […] Using the above samples, peptide kinetics for Glypican3 was obtained by SPR measurement. Kinetics evaluation of Glypican3 was performed by SPR measurements at a flow rate of 10 LL/min, setting the association time to 120 seconds and the disassociation time to 600 seconds.
The obtained data by Method B-1, Method B-2, Method B-3 and Method B-4 were analyzed by follow. Single Cycle Kinetics was used as the kinetics evaluation model, and curve fitting was performed using Biacore T200 Evaluation Software Version 3.0 (Cytiva).

First: {CH2CO}-[MeK][NMeQ]D[MeA4paa][Phe(4-COOH)][TMe(3)]I[Phe(4-CH2COOH)][NMe2Nal]G[Phe(4-(1-Me-pyrazol-4-yl))][NMeC]-NH2 (thioether N-12) [Macrocyclic peptide of Example 2-51 (SEQ ID No. 25)]
Second: {CH2CO}-[NMeK][MeKCOpipzaa]D[MeDapCOpipzaa][3Py6NHaa][Thr(Me)″]I[F4aao][NMeAla(isoquinolin-7-yl)]G[3Pal(6-Ph)][NMeC]-NH2 (thioether N-12) [Macrocyclic peptide of Example 2-30 (SEQ ID No. 47)]
The Kd of the first is 2.6-fold lower: 2.5 nM for the first, 6.6 nM for the second.

First: {CH2CO}-[MeKCOpipzaa″][MeHseMe]D[NMeQ][Phe(4-COOH)][S3REt]IY[NMeAla(isoquinolin-7-yl)]G[3Pal(6-Ph)][NMeC]-NH2 (thioether N-12) [Macrocyclic peptide of Example 2-25 (SEQ ID No. 59)]
Second: B1
The Kd of the first is 12-fold higher: 6.6 nM for the first, 0.57 nM for the second. The second binds more tightly here.

Compared with {CH2CO}-[NMeK](SulfoCy5)[MeHseMe]D[NMeQ][Phe(4-COOH)]II[F4aao][NMeAla(isoquinolin-7-yl)]G[3Pal(6-Ph)][NMeC]-NH2 (thioether N-12) [Mod5], {CH2CO}-[NMeK](SulfoCy5)[NMeI]D[NMeQ][Phe(4-COOH)][TMe]IY[NMeAla(isoquinolin-7-yl)]G[3Pal(6-Ph)][NMeC]-NH2 (thioether N-12) [Mod6] is 15-fold lower in Kd: 3.6 nM for the first, 0.24 nM for the second.

Going from {CH2CO}-[NMeK]([PEG12-Biotin])[NMeI]D[NMeQ][Phe(4-COOH)]IIY[NMeAla(isoquinolin-7-yl)]G[3Pal(6-Ph)][NMeC]-NH2 (thioether N-12, Biotin conjugate) [PLB-1] to {CH2CO}-[NMeK](dE)[NMeI]D[NMeQ][Phe(4-COOH)]II[F4aao][NMeAla(isoquinolin-7-yl)]G[3Pal(6-Ph)][NMeC]-NH2 (thioether N-12) [Macrocyclic peptide of Example B9 (SEQ ID No. 33)], the Kd rises from 0.25 nM to 0.52 nM (2.1-fold).

First: {CH2CO}-[NMeK](SulfoCy5(3))[NMeI]D[NMeQ][Phe(4-COOH)]IIY[NMeAla(isoquinolin-7-yl)]G[3Pal(6-Ph)][NMeC]-NH2 (thioether N-12) [PLD-1]
Second: B2
The Kd of the first is 11-fold lower: 0.32 nM for the first, 3.63 nM for the second.

Compared with {CH2CO}-[MeK][MeHseMe(3)]D[NMeQ][Phe(4-COOH)]II[Phe(4-CH2COOH)][NMe2Nal]G[Phe(4-(1-Me-pyrazol-4-yl))][NMeC]-NH2 (thioether N-12) [Macrocyclic peptide of Example 2-48 (SEQ ID No. 22)], B3 is 1.7-fold lower in Kd: 0.5 nM for the first, 0.3 nM for the second. The second binds more tightly here.
